The record followed here is patent US20250043002A1 (Regeneron, published 2025).

For experiment [1], the target named is T1, human CD28 on cells (endogenous on Jurkat/NFkB-Luc cells; human primary CD4+ T cells) (human, UniProt P10747 19-220). The experiment in a line: cell-based or functional assay.
Experiment [2] deals with T2, human PD-L1 expressed on cells (HEK293/hCD20/hPSMA/hPD-L1; WSU-DLCL2/hPD-L1) (human, UniProt Q9NZQ7 19-290).
T2 construct: whole, on cells; also called human programmed death ligand-1
T2 sequence (Q9NZQ7 19-290): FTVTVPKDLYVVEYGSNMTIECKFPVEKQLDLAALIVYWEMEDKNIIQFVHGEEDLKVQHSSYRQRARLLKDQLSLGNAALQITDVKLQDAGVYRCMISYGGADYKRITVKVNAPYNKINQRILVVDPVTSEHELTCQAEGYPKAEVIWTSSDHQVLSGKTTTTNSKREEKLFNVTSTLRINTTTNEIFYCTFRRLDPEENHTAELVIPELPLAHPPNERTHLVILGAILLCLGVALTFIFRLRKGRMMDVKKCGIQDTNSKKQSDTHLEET
The experiment in a line: flow cytometry, HEK293/hCD20/hPSMA/hPD-L1 cells.

The target of experiment [3] is human PD-L1 expressed with a C-terminal myc-myc-hexahistidine tag (hPD-L1.mmH) (human). Description: SPR Biacore 25 C, antibody captured by anti-hFc, hPD-L1.mmH injected.
human PD-L1 expressed with a C-terminal myc-myc-hexahistidine tag (hPD-L1.mmH) (human), sequence (chain, as listed by the source limits assumed): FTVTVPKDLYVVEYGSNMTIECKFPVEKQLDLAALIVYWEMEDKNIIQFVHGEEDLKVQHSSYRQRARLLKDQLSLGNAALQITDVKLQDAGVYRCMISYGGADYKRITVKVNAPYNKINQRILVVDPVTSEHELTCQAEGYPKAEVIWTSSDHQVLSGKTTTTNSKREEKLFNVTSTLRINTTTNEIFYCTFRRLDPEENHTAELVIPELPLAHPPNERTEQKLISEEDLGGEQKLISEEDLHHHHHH
Experiment [4] addresses T1, human CD28 on cells (endogenous on …). Description: cell-based or functional assay. This is another data set of the same source.
Experiment [5] addresses human CD28 expressed with a C-terminal murine Fc tag (hCD28.mFc) (human). Description: SPR Biacore 25 C, hCD28.mFc captured by anti-mFc, antibody injected.
Experiment [6] has as its target T1, human CD28 on cells (endogenous on …). The experiment in a line: flow cytometry, Jurkat/NFkB-Luc cells (endogenous CD28).
The target in experiment [7] is T3, hPD-L1-mFc: hPD-L1 extracellular domain (amino acids F19-T239) expressed with the Fc portion of mouse IgG2a … (human; mouse, UniProt Q9NZQ7 19-239).
T3 construct: range 19-239; not shown: Fc portion of mouse IgG2a, amino acids E98-K330
T3 sequence (Q9NZQ7 19-239 limits assumed): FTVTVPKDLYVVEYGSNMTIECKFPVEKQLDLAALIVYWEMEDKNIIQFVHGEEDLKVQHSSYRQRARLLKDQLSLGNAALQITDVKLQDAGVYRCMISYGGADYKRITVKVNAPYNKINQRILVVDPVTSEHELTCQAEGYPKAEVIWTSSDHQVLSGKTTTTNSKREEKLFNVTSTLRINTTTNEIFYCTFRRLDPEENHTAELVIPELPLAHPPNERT
Description: blocking ELISA, 0.7 nM hPD-L1-mFc on plate-coated hPD1-hFc.

Experiment [8] addresses T2, human PD-L1 expressed on cells …. The experiment in a line: cell-based or functional assay.
In experiment [9] the target is T1, human CD28 on cells (endogenous on …). Description: flow cytometry, Jurkat/NFkB-Luc cells (endogenous CD28); EC50 NC.

B1: REGN6193 (bispecific antibody, human IgG4 S228P, kappa)
heavy 1: EVQLVESGGGLVQPGRSLRLSCAASGFTFDDYALHWVRQAPGKGLEWVSGISWTGGTIDYADSVKGRFTISRDNAKNSLYLQMSSLRTEDTAIYYCTRDIRGNWKYGGWFDPWGQGTLVTVSSASTKGPSVFPLAPCSRSTSESTAALGCLVKDYFPEPVTVSWNSGALTSGVHTFPAVLQSSGLYSLSSVVTVPSSSLGTKTYTCNVDHKPSNTKVDKRVESKYGPPCPPCPAPPVAGPSVFLFPPKPKDTLMISRTPEVTCVVVDVSQEDPEVQFNWYVDGVEVHNAKTKPREEQFNSTYRVVSVLTVLHQDWLNGKEYKCKVSNKGLPSSIEKTISKAKGQPREPQVYTLPPSQEEMTKNQVSLTCLVKGFYPSDIAVEWESNGQPENNYKTTPPVLDSDGSFFLYSRLTVDKSRWQEGNVFSCSVMHEALHNHYTQKSLSLSLGK
heavy 2: EVQLVESGGGLVQPGGSLRLSCAASGFTFSRNNMHWVRQAPGKGLEYVSGISSNGGRTYYADSVKGRFTISRDNSKNTLYLQMGGLRAADMAVYFCTRDDELLSFDYWGQGTLVTVSSASTKGPSVFPLAPCSRSTSESTAALGCLVKDYFPEPVTVSWNSGALTSGVHTFPAVLQSSGLYSLSSVVTVPSSSLGTKTYTCNVDHKPSNTKVDKRVESKYGPPCPPCPAPPVAGPSVFLFPPKPKDTLMISRTPEVTCVVVDVSQEDPEVQFNWYVDGVEVHNAKTKPREEQFNSTYRVVSVLTVLHQDWLNGKEYKCKVSNKGLPSSIEKTISKAKGQPREPQVYTLPPSQEEMTKNQVSLTCLVKGFYPSDIAVEWESNGQPENNYKTTPPVLDSDGSFFLYSRLTVDKSRWQEGNVFSCSVMHEALHNRFTQKSLSLSPGK
light: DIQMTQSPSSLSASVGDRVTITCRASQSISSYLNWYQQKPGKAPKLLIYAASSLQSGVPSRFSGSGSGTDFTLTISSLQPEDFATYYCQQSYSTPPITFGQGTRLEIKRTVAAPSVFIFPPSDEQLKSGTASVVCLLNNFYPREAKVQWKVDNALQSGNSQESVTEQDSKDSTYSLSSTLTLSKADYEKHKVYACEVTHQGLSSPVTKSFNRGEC
notes: common light chain 1-39; also called PD-L1×CD28; anti-PD-L1 × anti-CD28 bispecific antibody
Regarding B1, in experiment [1], the “NFkB-luciferase EC50, Jurkat/NFkB-Luc + HEK293/hCD20/hPSMA/hPD-L1 + CD20×CD3” value came to 0.413 nM; the “NFkB-luciferase MAX (RLU), Jurkat/NFkB-Luc + HEK293/hCD20/hPSMA” value was found to be 14200 RLU; the “NFkB-luciferase MAX (RLU), Jurkat/NFkB-Luc + HEK293/hCD20/hPSMA + CD20×CD3” value is 217000 RLU; the “NFkB-luciferase MAX (RLU), Jurkat/NFkB-Luc + HEK293/hCD20/hPSMA/hPD-L1” value was found to be 19500 RLU. Moreover, the “NFkB-luciferase MAX (RLU), Jurkat/NFkB-Luc + HEK293/hCD20/hPSMA/hPD-L1 + CD20×CD3” value in experiment [1] was determined as 2.73e+06 RLU. For the same molecule, in experiment [2], the EC50 was determined as 1.3 nM, the “Fold Change (max MFI over secondary antibody alone)” value (“Fold Change” below) worked out at 847 fold and the “Max gMFI” value was 1.3e+06 gMFI. In experiment [3], the “30 nM hPD-L1.mmH Bind (RU)” value came to 44.2 RU, the Kd was determined as 0.116 nM, the koff turned out to be 6.37e-05 s⁻¹ and the kon was found to be 548000 M⁻¹ s⁻¹. The same molecule returned a t1/2 in experiment [3] of 3.02 h. Also, in experiment [4], the “IL2 release EC50, CD4+ T cells + HEK293/hCD20/hPSMA/hPD-L1 + CD20×CD3” value was 0.144 nM; the “IL2 release MAX (RLU), CD4+ T cells + HEK293/hCD20/hPSMA” value turned out to be 4250 RLU; the “IL2 release MAX (RLU), CD4+ T cells + HEK293/hCD20/hPSMA + CD20×CD3” value is 12600 RLU; the “IL2 release MAX (RLU), CD4+ T cells + HEK293/hCD20/hPSMA/hPD-L1” value was determined as 2760 RLU. Also, the “IL2 release MAX (RLU), CD4+ T cells + HEK293/hCD20/hPSMA/hPD-L1 + CD20×CD3” value in experiment [4] came out at 141000 RLU. Further, in experiment [5], the “90 nM mAb Bind (RU)” value amounted to 21.6 RU, the Kd amounted to 46.9 nM, the koff was 0.00168 s⁻¹ and the kon was 35900 M⁻¹ s⁻¹. The molecule further yielded a t1/2 in [5] of 6.9 min. In addition, in [6], the “Fold Change” value turned out to be 21.8 fold and the “Max gMFI” value was 9200 gMFI. In addition, in experiment [7], the “% Blocking at 100 nM mAb” value came out at 98% and the IC50 was found to be 0.82 nM. For the same molecule, in experiment [8], the “AP-1 luciferase EC50, WSU-DLCL2/hPD-L1 + Jurkat/AP1-Luc/hPD1” value was 0.202 nM and the “AP-1 luciferase MAX (RLU), WSU-DLCL2/hPD-L1 + Jurkat/AP1-Luc/hPD1” value was determined as 1.49e+06 RLU.

B2: mAb9364 (antibody, V domains shown)
VH: EVQLVESGGGLVQPGRSLRLSCAASGFTFDDYALHWVRQAPGKGLEWVSGISWTGGTIDYADSVKGRFTISRDNAKNSLYLQMSSLRTEDTAIYYCTRDIRGNWKYGGWFDPWGQGTLVTVSS
VL: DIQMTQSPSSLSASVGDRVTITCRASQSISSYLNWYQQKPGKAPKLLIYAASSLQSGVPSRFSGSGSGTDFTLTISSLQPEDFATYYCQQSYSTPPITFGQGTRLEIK
notes: Bivalent parental antibody; also called parental bivalent anti-PD-L1 antibody; PD-L1 bivalent control antibody
Consider B2, for which, in [1], the “NFkB-luciferase MAX (RLU), Jurkat/NFkB-Luc + HEK293/hCD20/hPSMA” value worked out at 44400 RLU; the “NFkB-luciferase MAX (RLU), Jurkat/NFkB-Luc + HEK293/hCD20/hPSMA + CD20×CD3” value amounted to 180000 RLU; the “NFkB-luciferase MAX (RLU), Jurkat/NFkB-Luc + HEK293/hCD20/hPSMA/hPD-L1” value came to 57100 RLU; the “NFkB-luciferase MAX (RLU), Jurkat/NFkB-Luc + HEK293/hCD20/hPSMA/hPD-L1 + CD20×CD3” value worked out at 165000 RLU. In addition, in [2], the EC50 turned out to be 0.73 nM, the “Fold Change” value was 401 fold and the “Max gMFI” value was 620000 gMFI. For the same molecule, in experiment [3], the “30 nM hPD-L1.mmH Bind (RU)” value came to 112 RU, binding was characterised by a dissociation constant (Kd) of 0.13 nM, the koff came to 7.42e-05 s⁻¹ and the kon was 571000 M⁻¹ s⁻¹. The same molecule returned a t1/2 in [3] of 2.59 h. Also, in experiment [4], the “IL2 release MAX (RLU), CD4+ T cells + HEK293/hCD20/hPSMA” value worked out at 4360 RLU; the “IL2 release MAX (RLU), CD4+ T cells + HEK293/hCD20/hPSMA + CD20×CD3” value amounted to 8980 RLU; the “IL2 release MAX (RLU), CD4+ T cells + HEK293/hCD20/hPSMA/hPD-L1” value is 3680 RLU; the “IL2 release MAX (RLU), CD4+ T cells + HEK293/hCD20/hPSMA/hPD-L1 + CD20×CD3” value is 10900 RLU. In addition, the “90 nM mAb Bind (RU)” value in experiment [5] is -0.9 RU. Further, the “Fold Change” value in experiment [9] came to 4.7 fold. In experiment [7], the “% Blocking at 100 nM mAb” value amounted to 99% and the IC50 turned out to be 0.52 nM. In experiment [8], the “AP-1 luciferase EC50, WSU-DLCL2/hPD-L1 + Jurkat/AP1-Luc/hPD1” value came out at 0.00651 nM and the “AP-1 luciferase MAX (RLU), WSU-DLCL2/hPD-L1 + Jurkat/AP1-Luc/hPD1” value stood at 1.04e+06 RLU.

B3: mAb9373 (antibody, V domains shown)
VH: QVQLVQSGTEVKKPGASVKVSCKASGYTFTAYYMHWVRQAPGQGLDWMGWISPNSGFTNYAQKFQGRVTMTRDTSINTFYMELSGLRSDDTAVYYCAREGSTHHNSFDPWGQGTLVTVSS
VL: not shown
notes: as for B2
For the molecule B3, in experiment [1], the “NFkB-luciferase MAX (RLU), Jurkat/NFkB-Luc + HEK293/hCD20/hPSMA” value turned out to be 11000 RLU; the “NFkB-luciferase MAX (RLU), Jurkat/NFkB-Luc + HEK293/hCD20/hPSMA + CD20×CD3” value worked out at 181000 RLU; the “NFkB-luciferase MAX (RLU), Jurkat/NFkB-Luc + HEK293/hCD20/hPSMA/hPD-L1” value is 11100 RLU; the “NFkB-luciferase MAX (RLU), Jurkat/NFkB-Luc + HEK293/hCD20/hPSMA/hPD-L1 + CD20×CD3” value came to 155000 RLU. In addition, in [4], the “IL2 release MAX (RLU), CD4+ T cells + HEK293/hCD20/hPSMA” value worked out at 4530 RLU; the “IL2 release MAX (RLU), CD4+ T cells + HEK293/hCD20/hPSMA + CD20×CD3” value was 9080 RLU; the “IL2 release MAX (RLU), CD4+ T cells + HEK293/hCD20/hPSMA/hPD-L1” value was 3640 RLU; the “IL2 release MAX (RLU), CD4+ T cells + HEK293/hCD20/hPSMA/hPD-L1 + CD20×CD3” value amounted to 6960 RLU. In addition, the “90 nM mAb Bind (RU)” value in [5] was -1.3 RU. The “Fold Change” value in experiment [9] was found to be 5.2 fold.
